Assay results published in patent US20260008815A1, “CYCLIC PEPTIDE OR SALT THEREOF, AND USES THEREOF” (FUJIFILM Corporation, priority 2023, published 2026).
Bridge positions count the residues as written; N and C are the ends. Ends that are not written are not given here. COCH2 = acetyl group that carries the bridge

What was measured:
[1] = molecular target: T1, FGFR1 Protein, Human, Recombinant (His Tag) (Homo sapiens, UniProt P11362); test: SPR FGFR versatility, peptide immobilized; settings: SPR binding amount at 1 μmol/L FGFR, 25° C., per one molecule of immobilized cyclic peptide
T1 construct: His; purchased Sino Biological 10616-H08H
Procedure: (§1) The binding of the cyclic peptide to various types of FGFRs was evaluated using a surface plasmon resonance (SPR) method.
(§2) A CM5 sensor chip (Cytiva, 29149603) was set in Biacore-T200 (manufactured by Cytiva) which is a surface plasmon resonance device, and an HBS-EP buffer (Cytiva, BR100826) was added as a running buffer at a flow rate of 10 μL/min to equilibrate the flow channel. Next, 70 μL of a mixed aqueous solution of 0.2 mol/L 1-(3-dimethylaminopropyl)-3-ethylcarbodiimide (EDC) and 0.05 mol/L N-hydroxysuccinimide (NHS) was added to activate the sensor chip. Then, a cyclic peptide prepared to 2 mg/mL in HBS-EP buffer was added thereto to perform immobilization at about 200 RU. Thereafter, the blocking treatment was performed with an ethanolamine solution. In addition, in another flow channel of the same sensor chip, blocking treatment was performed immediately after activation without […].
(§3) After various FGFRs (FGFR1 Protein, Human, Recombinant (His Tag) (Sino Biological, 10616-H08H), FGFR2 Protein, Human, Recombinant (His Tag) (Sino Biological, 10824-H08H), FGFR3 Protein, Human, Recombinant (ECD, His Tag) (Sino Biological, 16044-H08H), FGFR4 Protein, Human, Recombinant (His Tag) (Sino Biological, 10538-H08H)) diluted with HBS-EP to 1 μmol/L at 25° C. was added to each flow channel of the cyclic peptide-immobilized sensor chip prepared above, for 10 minutes, HBS-EP was allowed to flow as a running buffer for 30 minutes, and the binding of various FGFRs to the cyclic peptide was measured. Thereafter, a regeneration treatment of removing the bound FGFR was performed by repeating the flow of a regeneration liquid in which sodium chloride (final concentration: 0.4 mol/L) and a sodium dodecyl sulfate aqueous solution (mixed concentration: 1%, final concentration: 0.2%) were dissolved in Glysine 1.5 (Cytiva, BR100354) for 1 minute in each flow channel twice. The binding amount of the cyclic peptide was evaluated from the difference between the measured value of Biacore-T200 in the flow channel in which the cyclic peptide was immobilized and the measured value of Biacore-T200 in the flow channel in which the cyclic peptide was not immobilized, in a case where 1 μmol/L FGFR was allowed to flow.
(§4) The binding amount of FGFR evaluated above was normalized to the binding amount of FGFR molecules per one molecule of the cyclic peptide using the molecular weights of the cyclic peptide and FGFR, and the binding affinity to FGFR was evaluated according to the following evaluation criteria. The evaluation result preferably satisfies the evaluation criteria A, B, or C.

[2] = molecular target: T2, FGFR2 Protein, Human, Recombinant (His Tag) (Homo sapiens, UniProt P21802); test: SPR FGFR versatility, peptide immobilized; settings: SPR binding amount at 1 μmol/L FGFR, 25° C., per one molecule of immobilized cyclic peptide
T2 construct: His; purchased Sino Biological 10824-H08H
Procedure: as §1, §2, §3, §4

[3] = molecular target: T3, FGFR4 Protein, Human, Recombinant (His Tag) (Homo sapiens, UniProt P22455); test: SPR FGFR versatility, peptide immobilized; settings: SPR binding amount at 1 μmol/L FGFR, 25° C., per one molecule of immobilized cyclic peptide
T3 construct: His; purchased Sino Biological 10538-H08H
Procedure: as §1, §2, §3, §4

[4] = molecular target: T4, FGFR3 Protein, Human, Recombinant (ECD, His Tag) (Homo sapiens, UniProt P22607); test: SPR FGFR versatility, peptide immobilized; settings: SPR binding amount at 1 μmol/L FGFR, 25° C., per one molecule of immobilized cyclic peptide
T4 construct: FGFR3 Protein, Human, Recombinant (ECD, His Tag) (Sino Biological, 16044-H08H); His; purchased Sino Biological 16044-H08H
T4 sequence (P22607 23-375 limits assumed): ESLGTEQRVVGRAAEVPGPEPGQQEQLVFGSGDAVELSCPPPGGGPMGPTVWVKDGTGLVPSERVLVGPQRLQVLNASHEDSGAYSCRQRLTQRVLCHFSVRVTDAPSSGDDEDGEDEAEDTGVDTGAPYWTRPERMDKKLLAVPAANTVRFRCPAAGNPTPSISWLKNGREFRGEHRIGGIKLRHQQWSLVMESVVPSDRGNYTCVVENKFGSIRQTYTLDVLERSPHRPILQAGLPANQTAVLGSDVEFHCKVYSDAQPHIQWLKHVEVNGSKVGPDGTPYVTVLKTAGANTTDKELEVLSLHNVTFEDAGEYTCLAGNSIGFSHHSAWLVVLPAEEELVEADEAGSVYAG
Procedure: as §1, §2, §3, §4

[5] = Molecular stability after reducing agent (DTT) treatment, LC; type: physicochemical; settings: residual rate after DTT aqueous solution, room temperature, 1 hour
Procedure: The molecular stability of the cyclic peptide was evaluated by analyzing an aqueous solution of the cyclic peptide treated with a reducing agent by liquid chromatography (LC).
The reducing agent treatment was performed under the following conditions based on the concentration of glutathione contained in the cells. 25 μL of a 0.2 mg/mL cyclic peptide aqueous solution was prepared, 58.8 μL of a 12.6 mmol/L DTT aqueous solution was added to the aqueous solution, and the mixture was incubated at room temperature for 1 hour to obtain an aqueous solution of the cyclic peptide treated with a reducing agent. The DTT aqueous solution was used by diluting a 1 mol/L (+−)-dithiothreitol (DTT) solution (FUJIFILM Wako Pure Chemical Corporation, 044-33871) with water. The total area of all the peaks in LC/MS of the cyclic peptide before the reducing agent treatment was set to 100%, and the proportion of the total area of all the peaks in LC/MS of the aqueous solution of the cyclic peptide treated with the reducing agent was determined to calculate the residual rate of the cyclic peptide, and the molecular stability was evaluated according to the following evaluation criteria. The evaluation result preferably satisfies the evaluation criteria A, B, or C.
The LC used for the evaluation of molecular stability was set to the following conditions. • LC device: Prominence series (pump, column oven, autosampler, detector) (manufactured by Shimadzu Corporation) • Detector: photodiode array detector (SPD-M20A), measurement wavelength of 280 nm • Column: TSKgel ODS-100V, inner diameter of 4.6 mm×length of 150 mm, particle diameter of 5 μm (manufactured by Tosoh Corporation) • Eluent A: solution containing 0.1% trifluoroacetic acid as solute, and solvent is 100% water • Eluent B: solution containing 0.1% trifluoroacetic acid as solute, and solvent is 100% acetonitrile • Flow rate: 1.0 mL/min • Injection amount: 25 μL • Gradient: 20% to 50%: Eluent B (0 to 15 minutes), 100%: Eluent B (15 minutes) • Column temperature: 40° C.

[6] = molecular target: T5, Recombinant Human FGFR2 alpha (IIIc) Fc Chimera Protein (Homo sapiens, UniProt P21802); test: SPR binding affinity of chemically synthesized cyclic peptide to immobilized FGFR; settings: SPR binding amount at 10 nmol/L cyclic peptide, 25° C., per one molecule of FGFR; chemically synthesized product
T5 construct: Fc (chimera); purchased R&D systems 712-FR-050
Procedure: The binding affinity of the cyclic peptide to FGFR was evaluated using a surface plasmon resonance (SPR) method.
A CM5 sensor chip (Cytiva, 29149603) was set in Biacore-T200 (manufactured by Cytiva) which is a surface plasmon resonance device, and an HBS-EP buffer (Cytiva, BR100826) was added as a running buffer at a flow rate of 10 μL/min to equilibrate the flow channel. Next, 70 μL of a mixed aqueous solution of 0.2 mol/L 1-(3-dimethylaminopropyl)-3-ethylcarbodiimide (EDC) and 0.05 mol/L N-hydroxysuccinimide (NHS) was added to activate the sensor chip. Then, Recombinant Human FGFR2 alpha (IIIc) Fc Chimera Protein CF (R&D systems, 712-FR-050) prepared at 50 nmol/L in an Acetate 4.5 buffer (Cytiva, BR100350) was added thereto to perform immobilization at about 5000 RU. Thereafter, the blocking treatment was performed with an ethanolamine solution. In addition, in another flow channel of the same sensor chip, blocking treatment was performed immediately after activation without immobilizing FGFR.
A cyclic peptide diluted to 10 nmol/L using HBS-EP was added to each flow channel of the FGFR-immobilized sensor chip produced above at 25° C. for 10 minutes, then HBS-EP was allowed to flow as a running buffer for 30 minutes, and the binding of the cyclic peptide to FGFR was measured. Thereafter, a regeneration treatment of removing the bound cyclic peptide was performed by repeating the flow of a regeneration liquid in which sodium chloride powder was dissolved in Glysine 1.5 (Cytiva, BR100354) to a final concentration of 0.15 mol/L for 1 minute in each flow channel twice. The binding amount of the cyclic peptide was evaluated from the difference between the measured value of Biacore-T200 in the flow channel in which FGFR was immobilized and the measured value of Biacore-T200 in the flow channel in which FGFR was not immobilated, in a case where a 10 nmol/L cyclic peptide was allowed to flow.
The binding amount of the cyclic peptide evaluated above was normalized to the binding amount of the cyclic peptide molecules per one molecule of FGFR using the molecular weights of the cyclic peptide and FGFR, and the binding affinity to FGFR was evaluated according to the following evaluation criteria. The evaluation result preferably satisfies the evaluation criteria A, B, or C.

bovine myoblasts = test: Bovine myoblast proliferation-promoting effect; type: cell-based, Japanese Black cattle; settings: of 30 ng/mL bFGF (=100, negative control =0); 0.03 to 10 nmol/L complex, 4 days
Procedure: The bovine cells (myoblasts) proliferation-promoting effect of the cyclic peptide complex was evaluated.
Bovine myoblasts were separated from bovine muscle tissue by the following method. First, muscle tissue of Japanese Black cattle was finely chopped in HBSS (−) (phenol red-free) (FUJIFILM Wako Pure Chemical Corporation, 085-09355), and then pronase from Streptomyces griseus (Sigma-Aldrich, 10165921001) was added thereto to a final concentration of 1 mg/mL, and the mixture was allowed to stand at 37° C. for 1 hour. After allowing to stand, HBSS containing 10% FBS was added thereto, and the cells were acquired by centrifugation. The acquired cells were suspended in D-MEM (high glucose) (containing L-glutamine and phenol red) (FUJIFILM Wako Pure Chemical Corporation, 044-29765) containing 10% final concentration of bovine serum and 30 ng/mL bFGF. Suspended cells were cultured in a culture flask coated with an iMatrix-511 solution (FUJIFILM Wako Pure Chemical Corporation, 381-07363) at 0.55 μg/cm^2. […]
The evaluation of the proliferation-promoting effect on bovine myoblasts was performed by the following method. […] The number of viable cells was calculated from the imaging data and normalized by setting the number of viable cells in the well to which 30 ng/mL bFGF was added to 100, and setting the number of viable cells in the negative control well to 0.

T2 sequence (P21802 22-821): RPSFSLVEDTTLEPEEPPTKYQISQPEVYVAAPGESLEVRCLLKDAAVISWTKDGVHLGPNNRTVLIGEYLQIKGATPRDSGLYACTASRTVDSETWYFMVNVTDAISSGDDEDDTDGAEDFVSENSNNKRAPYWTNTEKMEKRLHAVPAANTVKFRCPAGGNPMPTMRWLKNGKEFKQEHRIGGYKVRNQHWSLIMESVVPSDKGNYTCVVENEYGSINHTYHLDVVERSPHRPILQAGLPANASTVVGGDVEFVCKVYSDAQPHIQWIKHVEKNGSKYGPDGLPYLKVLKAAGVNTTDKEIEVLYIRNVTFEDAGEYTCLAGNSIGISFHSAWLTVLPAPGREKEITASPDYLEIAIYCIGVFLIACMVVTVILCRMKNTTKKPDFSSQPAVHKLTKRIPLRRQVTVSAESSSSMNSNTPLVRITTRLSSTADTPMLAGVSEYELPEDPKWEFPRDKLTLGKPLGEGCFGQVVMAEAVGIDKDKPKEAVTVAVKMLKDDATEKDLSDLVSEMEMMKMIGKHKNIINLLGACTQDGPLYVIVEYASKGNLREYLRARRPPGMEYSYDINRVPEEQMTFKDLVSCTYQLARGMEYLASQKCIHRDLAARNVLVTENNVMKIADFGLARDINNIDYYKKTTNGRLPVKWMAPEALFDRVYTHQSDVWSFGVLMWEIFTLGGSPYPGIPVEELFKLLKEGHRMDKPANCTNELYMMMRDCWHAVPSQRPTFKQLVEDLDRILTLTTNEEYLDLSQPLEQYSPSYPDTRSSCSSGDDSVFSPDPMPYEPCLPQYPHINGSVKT
T3 sequence (P22455 22-802): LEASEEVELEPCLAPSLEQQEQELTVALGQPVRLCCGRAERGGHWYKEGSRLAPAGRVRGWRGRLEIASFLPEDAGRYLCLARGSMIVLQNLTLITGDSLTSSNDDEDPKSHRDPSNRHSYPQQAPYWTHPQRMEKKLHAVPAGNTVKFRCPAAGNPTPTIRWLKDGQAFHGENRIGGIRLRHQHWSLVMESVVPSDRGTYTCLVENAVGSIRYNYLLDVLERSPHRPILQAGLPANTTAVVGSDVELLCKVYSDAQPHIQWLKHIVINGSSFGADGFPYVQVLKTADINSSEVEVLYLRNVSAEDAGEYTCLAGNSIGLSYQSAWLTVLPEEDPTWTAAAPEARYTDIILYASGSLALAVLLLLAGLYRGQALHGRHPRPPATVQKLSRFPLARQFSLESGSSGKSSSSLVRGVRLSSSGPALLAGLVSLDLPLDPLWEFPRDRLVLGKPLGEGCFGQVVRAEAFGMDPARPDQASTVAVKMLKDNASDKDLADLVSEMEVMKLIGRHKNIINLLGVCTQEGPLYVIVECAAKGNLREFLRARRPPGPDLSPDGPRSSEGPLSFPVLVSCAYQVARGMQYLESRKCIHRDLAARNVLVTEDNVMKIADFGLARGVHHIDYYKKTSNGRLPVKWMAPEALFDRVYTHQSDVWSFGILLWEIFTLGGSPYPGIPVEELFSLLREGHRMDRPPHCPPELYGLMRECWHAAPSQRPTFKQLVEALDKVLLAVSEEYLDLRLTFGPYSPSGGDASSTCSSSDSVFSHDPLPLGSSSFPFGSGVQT
T1 sequence (P11362 22-822): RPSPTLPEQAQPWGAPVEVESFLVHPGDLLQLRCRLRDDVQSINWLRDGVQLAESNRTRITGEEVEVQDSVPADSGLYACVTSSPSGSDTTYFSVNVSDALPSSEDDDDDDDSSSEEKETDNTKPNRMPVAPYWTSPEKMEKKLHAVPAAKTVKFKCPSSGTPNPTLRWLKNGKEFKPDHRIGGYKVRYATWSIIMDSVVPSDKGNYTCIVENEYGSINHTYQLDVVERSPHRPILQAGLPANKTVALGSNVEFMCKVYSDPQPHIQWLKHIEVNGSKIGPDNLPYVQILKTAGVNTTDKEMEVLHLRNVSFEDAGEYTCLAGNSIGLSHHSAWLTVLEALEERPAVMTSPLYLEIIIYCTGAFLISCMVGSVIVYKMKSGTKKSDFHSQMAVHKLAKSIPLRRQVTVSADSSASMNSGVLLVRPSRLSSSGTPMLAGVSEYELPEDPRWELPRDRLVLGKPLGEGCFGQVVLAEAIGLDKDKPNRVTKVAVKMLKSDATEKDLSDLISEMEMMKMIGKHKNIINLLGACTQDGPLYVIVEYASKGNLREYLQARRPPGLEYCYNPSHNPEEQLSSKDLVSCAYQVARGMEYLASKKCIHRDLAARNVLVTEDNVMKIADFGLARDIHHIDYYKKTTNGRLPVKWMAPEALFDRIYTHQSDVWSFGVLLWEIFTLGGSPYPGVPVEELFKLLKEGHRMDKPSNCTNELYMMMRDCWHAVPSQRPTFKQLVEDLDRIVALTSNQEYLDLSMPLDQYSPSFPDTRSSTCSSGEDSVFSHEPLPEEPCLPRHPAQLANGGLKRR
T5 sequence (P21802 with tags, fused parts or gaps limits assumed): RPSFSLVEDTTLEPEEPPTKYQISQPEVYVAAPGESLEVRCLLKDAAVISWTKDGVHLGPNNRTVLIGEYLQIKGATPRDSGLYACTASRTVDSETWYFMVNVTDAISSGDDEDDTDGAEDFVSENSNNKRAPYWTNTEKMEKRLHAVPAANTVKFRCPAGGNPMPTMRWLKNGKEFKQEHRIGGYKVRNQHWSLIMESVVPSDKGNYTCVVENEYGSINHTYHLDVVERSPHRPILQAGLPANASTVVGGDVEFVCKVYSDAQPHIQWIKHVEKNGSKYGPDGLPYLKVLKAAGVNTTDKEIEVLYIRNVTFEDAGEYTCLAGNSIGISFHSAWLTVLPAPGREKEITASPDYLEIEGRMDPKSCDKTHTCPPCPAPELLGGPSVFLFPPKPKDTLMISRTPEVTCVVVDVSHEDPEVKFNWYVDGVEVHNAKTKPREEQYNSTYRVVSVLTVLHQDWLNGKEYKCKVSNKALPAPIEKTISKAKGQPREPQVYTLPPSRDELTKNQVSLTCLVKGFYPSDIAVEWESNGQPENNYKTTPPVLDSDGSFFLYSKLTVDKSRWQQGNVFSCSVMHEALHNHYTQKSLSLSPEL

Row | Substance | Evaluation result of binding affinity to FGFR1 [1] | Evaluation result of binding affinity F GFR2 [2] | Evaluation result of binding affinity to FGFR4 [3] | Evaluation result of binding affinity to FGFR3 [4] | Evaluation result of reductive stability [5] | Evaluation result of binding affinity to FGFR [6] | bovine myoblast proliferation action (bovine myoblasts)
1 | 450 (YCEENYLDPEQYQYFIYFK(COCH2)YKKK; thioether 2-19) [compound 450] | B (The binding amount is 0.01 molecules of FGFR/one molecule of the cyclic peptide or more and less than 0.05 molecules of FGFR/one molecule of the cyclic peptide.) | A (The binding amount is 0.05 molecules of FGFR/one molecule of the cyclic peptide or more.) | B (The binding amount is 0.01 molecules of FGFR/one molecule of the cyclic peptide or more and less than 0.05 molecules of FGFR/one molecule of the cyclic peptide.) | B (The binding amount is 0.01 molecules of FGFR/one molecule of the cyclic peptide or more and less than 0.05 molecules of FGFR/one molecule of the cyclic peptide.) | B (The residual rate of the cyclic peptide is 70% or more and less than 90%) | A (The binding amount is 0.7 molecules of the cyclic peptide/one molecule of FGFR or more.) | –
2 | Q-(C)-PQNFINPVQWRYFQHY-(K(acetyl))-NK (QCPQNFINPVQWRYFQHYK(COCH2)NKQCPQNFINPVQWRYFQHYK(COCH2)NK; thioether 2-19, 23-40; not fully specified (N-terminus, bridges); also: Bis-NHS-PEG9 crosslink, dimer of two 21-mers) [SEQ ID NO: 458, cyclic peptide complex; N-terminal acetylation, crosslinking between side chain amino groups of K via Bis-NHS-PEG9] | – | – | – | – | – | – | about 40%
